From US20240279345A1, “ALPHA 5 BETA 1 INTEGRIN BINDING AGENTS AND USES THEREOF” (PASITHEA THERAPEUTICS CORP., priority 2021, published 2024)
Changes are numbered by the printed parent chain. In names and notes the source's numbering stands.

Experiments:
[1] = molecular target: T1, recombinant human α5β1 integrin (rh-α5β1) (Homo sapiens, UniProt P05556+P08648); test: Plate-based ELISA reactivity to rh-α5β1; format: binding; settings: selected for further characterization among α5 specific hybridomas (28 selected)
T1 construct: purchased R&D Systems 3230-A5
T1 sequence (P08648 42-894 limits assumed): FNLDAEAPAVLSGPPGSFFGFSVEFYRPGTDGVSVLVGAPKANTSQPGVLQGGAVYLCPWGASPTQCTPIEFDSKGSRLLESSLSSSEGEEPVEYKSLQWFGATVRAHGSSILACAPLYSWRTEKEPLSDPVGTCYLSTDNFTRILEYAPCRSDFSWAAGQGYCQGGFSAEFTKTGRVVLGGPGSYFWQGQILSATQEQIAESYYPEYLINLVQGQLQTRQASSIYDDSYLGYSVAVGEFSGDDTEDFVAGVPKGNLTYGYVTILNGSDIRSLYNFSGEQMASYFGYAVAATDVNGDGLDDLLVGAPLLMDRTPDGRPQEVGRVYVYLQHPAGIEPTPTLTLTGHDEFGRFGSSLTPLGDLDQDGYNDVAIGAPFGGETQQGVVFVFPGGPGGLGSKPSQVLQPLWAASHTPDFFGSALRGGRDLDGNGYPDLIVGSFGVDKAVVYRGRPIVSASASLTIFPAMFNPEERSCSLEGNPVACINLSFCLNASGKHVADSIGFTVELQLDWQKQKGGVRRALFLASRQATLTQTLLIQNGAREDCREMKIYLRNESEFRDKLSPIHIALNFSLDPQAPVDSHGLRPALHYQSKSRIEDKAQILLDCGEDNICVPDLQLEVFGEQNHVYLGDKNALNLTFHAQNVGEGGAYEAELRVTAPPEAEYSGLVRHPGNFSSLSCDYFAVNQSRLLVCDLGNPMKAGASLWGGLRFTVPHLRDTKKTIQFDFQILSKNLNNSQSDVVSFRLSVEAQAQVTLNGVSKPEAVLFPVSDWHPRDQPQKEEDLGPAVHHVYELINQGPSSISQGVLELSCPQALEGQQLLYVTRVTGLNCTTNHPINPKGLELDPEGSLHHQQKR
T1 sequence (P08648 895-995 limits assumed): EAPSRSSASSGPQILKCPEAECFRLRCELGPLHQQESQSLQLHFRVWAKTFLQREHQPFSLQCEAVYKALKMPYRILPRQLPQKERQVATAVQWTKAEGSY
T1 sequence (P05556 21-728 limits assumed): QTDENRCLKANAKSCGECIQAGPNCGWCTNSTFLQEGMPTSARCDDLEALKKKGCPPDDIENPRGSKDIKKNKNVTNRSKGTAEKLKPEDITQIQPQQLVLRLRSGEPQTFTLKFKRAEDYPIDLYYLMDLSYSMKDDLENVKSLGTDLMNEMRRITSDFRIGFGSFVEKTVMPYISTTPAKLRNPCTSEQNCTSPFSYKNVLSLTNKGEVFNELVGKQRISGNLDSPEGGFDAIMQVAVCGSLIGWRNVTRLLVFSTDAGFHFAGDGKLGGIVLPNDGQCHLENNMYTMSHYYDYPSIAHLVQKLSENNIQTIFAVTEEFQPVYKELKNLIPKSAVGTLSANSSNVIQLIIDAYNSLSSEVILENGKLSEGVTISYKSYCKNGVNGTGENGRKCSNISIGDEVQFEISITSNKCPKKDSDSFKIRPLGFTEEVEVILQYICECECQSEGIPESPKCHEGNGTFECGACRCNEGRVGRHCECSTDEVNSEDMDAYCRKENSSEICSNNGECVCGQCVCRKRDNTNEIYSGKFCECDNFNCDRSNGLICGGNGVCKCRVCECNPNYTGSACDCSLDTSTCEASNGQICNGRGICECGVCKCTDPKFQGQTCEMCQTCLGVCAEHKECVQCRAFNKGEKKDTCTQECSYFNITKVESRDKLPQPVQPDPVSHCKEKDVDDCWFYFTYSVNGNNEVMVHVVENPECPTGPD
Procedure: (§1) The 249 positive hybridoma supernatants selected as described in Example 1 were screened for reactivity to rh-α5β1 in a plate-based ELISA. Immulon4 HBX ELISA 96-well plates (Thermo Fisher Scientific, Waltham, MA, cat. no. 3855) were coated with rh-α5β1 (R&D Systems, Minneapolis, MN 55413, cat. no. 3230-A5), at 1 μg/mL in PBS supplemented with 0.5 mM MgCl2, MnCl2 and CaCl2 and incubated overnight at 4° C. Plates were washed 3 times with Wash Buffer (1× Tris Buffered Saline containing 0.05% Tween20), blocked with 2% BSA in 1×TBS (made from 10× Thermo Scientific Blocker BSA (10×) in TBS; Thermo Fisher Scientific, Waltham, MA, cat. no. 37520) for 2 hours at room temperature (RT) then incubated with hybridoma supernatants diluted 1:10 with Standard Diluent (2% BSA, 1×TBS, 0.05% Tween20). Following a 1 hour incubation at RT, wells were washed 3 times, incubated with biotinylated goat anti-mouse secondary antibody at 1:8000 dilution (Invitrogen, Carlsbad, CA, cat. no. 62-6540) for 1 hour, washed 3 times, then incubated for 30 minutes with poly-HRP Streptavidin (Thermo Fisher Scientific, Waltham, MA, cat. no. N200), washed 4 times, incubated with TMB (Thermo Fisher Scientific, Waltham, MA, cat. no. N301) for 5-10 minutes, followed by addition of ELISA Stop Solution (Invitrogen, Carlsbad, CA, cat. no. SS04). Absorbance 450 nm was measured.

[2] = molecular target: T2, recombinant mouse α5β1 (rm-α5β1) (Mus musculus, UniProt P09055+P11688); test: Plate-based ELISA cross-reactivity to rm-α5β1; format: binding; settings: hybridoma supernatant diluted 1:10; plate coated with rm-α5β1
T2 construct: purchased R&D Systems 7728-A5
T2 sequence (P11688 45-898 limits assumed): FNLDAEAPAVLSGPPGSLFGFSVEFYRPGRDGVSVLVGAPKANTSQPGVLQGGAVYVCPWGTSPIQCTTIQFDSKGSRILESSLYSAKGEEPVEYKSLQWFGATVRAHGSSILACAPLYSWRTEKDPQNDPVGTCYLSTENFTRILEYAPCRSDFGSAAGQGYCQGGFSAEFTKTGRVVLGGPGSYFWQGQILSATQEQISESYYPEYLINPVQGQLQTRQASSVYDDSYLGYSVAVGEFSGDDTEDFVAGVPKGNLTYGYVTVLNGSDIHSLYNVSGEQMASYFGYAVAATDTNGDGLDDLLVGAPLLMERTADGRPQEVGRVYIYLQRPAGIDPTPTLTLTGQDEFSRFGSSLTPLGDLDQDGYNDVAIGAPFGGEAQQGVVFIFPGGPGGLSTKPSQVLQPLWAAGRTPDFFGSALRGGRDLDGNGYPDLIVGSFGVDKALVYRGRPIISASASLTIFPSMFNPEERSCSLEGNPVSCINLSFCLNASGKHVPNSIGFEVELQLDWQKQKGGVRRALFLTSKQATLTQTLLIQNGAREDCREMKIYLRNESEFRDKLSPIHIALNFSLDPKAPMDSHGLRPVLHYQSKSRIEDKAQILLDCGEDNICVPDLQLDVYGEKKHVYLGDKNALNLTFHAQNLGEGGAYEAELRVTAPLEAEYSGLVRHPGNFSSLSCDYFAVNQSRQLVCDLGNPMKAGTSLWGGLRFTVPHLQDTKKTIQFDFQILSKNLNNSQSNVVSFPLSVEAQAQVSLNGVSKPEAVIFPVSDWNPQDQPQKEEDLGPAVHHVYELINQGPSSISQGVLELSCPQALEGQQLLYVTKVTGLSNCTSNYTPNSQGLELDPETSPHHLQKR
T2 sequence (P11688 899-999 limits assumed): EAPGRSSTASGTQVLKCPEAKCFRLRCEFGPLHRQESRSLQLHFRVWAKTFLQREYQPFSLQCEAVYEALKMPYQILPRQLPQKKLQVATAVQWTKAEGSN
T2 sequence (P09055 21-728 limits assumed): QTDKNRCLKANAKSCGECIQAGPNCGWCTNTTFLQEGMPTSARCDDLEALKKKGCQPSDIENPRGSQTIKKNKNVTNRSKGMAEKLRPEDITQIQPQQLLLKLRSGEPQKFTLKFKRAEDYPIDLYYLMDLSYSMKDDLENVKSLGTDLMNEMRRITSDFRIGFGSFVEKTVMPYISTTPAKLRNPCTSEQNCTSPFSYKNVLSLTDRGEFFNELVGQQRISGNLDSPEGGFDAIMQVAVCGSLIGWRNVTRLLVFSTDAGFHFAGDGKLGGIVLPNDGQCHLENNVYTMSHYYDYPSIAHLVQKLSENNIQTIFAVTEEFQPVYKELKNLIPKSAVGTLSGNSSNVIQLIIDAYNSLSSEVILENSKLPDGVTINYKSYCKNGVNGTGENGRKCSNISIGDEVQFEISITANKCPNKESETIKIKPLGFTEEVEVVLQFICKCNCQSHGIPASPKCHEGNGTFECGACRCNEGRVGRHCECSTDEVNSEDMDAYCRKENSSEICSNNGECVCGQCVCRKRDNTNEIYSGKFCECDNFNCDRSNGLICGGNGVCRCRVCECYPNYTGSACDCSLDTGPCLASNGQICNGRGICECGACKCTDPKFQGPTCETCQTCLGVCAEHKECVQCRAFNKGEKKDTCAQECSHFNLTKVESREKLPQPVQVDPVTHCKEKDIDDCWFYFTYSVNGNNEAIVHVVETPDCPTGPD
Procedure: as §1
In addition, hybridomas were tested for cross-reactivity to recombinant mouse α5β1 (rm-α5β1; R&D Systems, Minneapolis, MN 55413; cat. no. 7728-A5) using the same protocol as above except that the plates were coated with rm-α5β1.

[3] = molecular target: T3, rh-α4β1 (Homo sapiens, UniProt P05556+P13612); test: Plate-based ELISA reactivity to rh-α4β1 (α5 subunit specificity); format: binding; settings: hybridoma supernatant diluted 1:10; plate coated with rh-α4β1
T3 construct: purchased R&D Systems 3230-A5 & 5668-A4
T3 sequence (P13612 34-977 limits assumed): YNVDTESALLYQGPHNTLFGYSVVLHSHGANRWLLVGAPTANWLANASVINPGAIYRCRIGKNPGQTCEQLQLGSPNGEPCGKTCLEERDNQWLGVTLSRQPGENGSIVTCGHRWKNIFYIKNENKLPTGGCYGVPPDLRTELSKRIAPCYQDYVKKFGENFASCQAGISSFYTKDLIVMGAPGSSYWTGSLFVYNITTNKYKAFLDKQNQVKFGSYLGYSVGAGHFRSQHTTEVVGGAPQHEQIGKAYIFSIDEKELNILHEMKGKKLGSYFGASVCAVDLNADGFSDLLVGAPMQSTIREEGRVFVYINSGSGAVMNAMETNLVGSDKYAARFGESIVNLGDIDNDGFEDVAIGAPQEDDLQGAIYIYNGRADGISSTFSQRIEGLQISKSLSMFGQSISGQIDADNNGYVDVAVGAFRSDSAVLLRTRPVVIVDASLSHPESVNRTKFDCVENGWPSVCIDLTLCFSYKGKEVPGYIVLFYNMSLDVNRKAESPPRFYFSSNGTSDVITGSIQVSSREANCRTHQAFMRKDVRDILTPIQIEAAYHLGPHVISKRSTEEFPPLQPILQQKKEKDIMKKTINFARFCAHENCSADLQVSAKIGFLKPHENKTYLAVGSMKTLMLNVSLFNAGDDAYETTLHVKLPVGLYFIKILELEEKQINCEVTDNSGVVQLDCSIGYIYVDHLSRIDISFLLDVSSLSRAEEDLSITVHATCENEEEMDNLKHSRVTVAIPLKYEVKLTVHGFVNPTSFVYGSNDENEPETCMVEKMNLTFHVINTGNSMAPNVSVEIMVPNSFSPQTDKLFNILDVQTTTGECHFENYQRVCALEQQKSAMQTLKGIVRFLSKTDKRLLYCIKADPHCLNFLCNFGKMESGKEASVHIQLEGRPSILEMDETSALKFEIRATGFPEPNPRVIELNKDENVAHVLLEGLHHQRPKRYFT
T3 sequence (P05556 21-728 limits assumed): as the sequence (P05556 21-728 limits assumed) above
Procedure: as §1
In parallel the 249 hybridomas were screened for specificity to the human α5 subunit by testing for reactivity to rh-α4β1 (R&D Systems, Minneapolis, MN 55413; cat. no. 3230-A5 & 5668-A4). Any hybridoma that reacted to both rh-α4β1 and rh-α5β1 is likely to be β1 subunit specific and not considered α5 specific. Using the protocol described above, 29 hybridoma supernatants reacted strongly (>1.0 Absorbance 450 nm) with rh-α4β1 and were not considered to be α5 specific.

[4] = molecular target: rh-α5β1 (Homo sapiens, UniProt P05556+P08648); test: Competition binding studies by Biolayer Interferometry (epitope groups); settings: for Response (nm) / % Response: secondary mAb pre-mixed with 20 nM rh-α5β1; for % Response: relative to antigen alone
Sequence of rh-α5β1 (P08648 42-894 limits assumed): as the sequence (P08648 42-894 limits assumed) above
Sequence of rh-α5β1 (P08648 895-995 limits assumed): as the sequence (P08648 895-995 limits assumed) above
Sequence of rh-α5β1 (P05556 21-728 limits assumed): as the sequence (P05556 21-728 limits assumed) above
Procedure: Epitope analysis via competition binding studies was performed using Biolayer Interferometry (BLI) on the 6 antibodies selected as described in Example 5. The anti-α5β1 FN blocking antibodies A2-7A05, C-14D12 and A-15B08 were immobilized on sensors and incubated with each of the other antibodies that had been preincubated with rh-α5β1, to determine whether this antibody-antigen association prevents or allows binding to the antibody on the sensor. The magnitude of observed binding (response) was compared to binding of antigen alone under the same conditions. If the overall response was greater than 120% of antigen binding alone, then the antibodies can pair with each other. If response was less than 80% of response of antigen binding alone, then the antibodies block each other. The protocol was as follows: preincubate the panel of antibodies with antigen (1 hr). Equilibrate the sensor (30 seconds (s))-->Load lead Ab on the sensor (700s)--->Quench (480s)--->Read baseline (480s)-->measure preincubated Ab+Ag association with loaded sensor (600s).

[5] = molecular target: T4, binding of α5β1 integrin to fibronectin (FN) (Homo sapiens, UniProt P05556+P08648); test: Quantitative FN inhibition (FN-blocking) assay in ELISA format; format: biochemical; settings: by ELISA
T4 construct: purchased Acro Biosystems IT1-H52W5
T4 sequence (P08648 42-894 limits assumed): as the sequence (P08648 42-894 limits assumed) above
T4 sequence (P08648 895-995 limits assumed): as the sequence (P08648 895-995 limits assumed) above
T4 sequence (P05556 21-728 limits assumed): as the sequence (P05556 21-728 limits assumed) above
From the text: To determine whether the 9 unique hybridoma clones selected as described in Example 4 were able to inhibit the binding of α5β1 integrin to fibronectin (FN), the antibodies were first purified from hybridoma supernatants by Protein A chromatography, protein concentrations measured by BCA assay (Pierce™ BCA Protein Assay Kit; Thermo Fisher Scientific, Waltham, MA, cat. no. 23225) and then tested in a quantitative FN inhibition assay in an ELISA format.
Immulon4 HBX ELISA 96-well plates were coated with FN by incubation overnight at 4° C. with 2.5 μg/mL human FN (R&D Systems, Minneapolis, MN 55413, cat. no. 1918-FN) in 1×PBS (0.01M phosphate buffer and 0.154M NaCl, pH 7.4). Plates were then washed 3 times with Wash Buffer (1× Tris Buffered Saline containing 0.05% Tween20), blocked with 2% BSA in 1×TBS for 2 hours at room temperature (RT). Antibodies were diluted in Standard Diluent (2% BSA, 1×TBS, 0.05% Tween20) containing 0.1 μg/mL rh-α5β1-6×His tagged protein (Acro Biosystems, Newark, DE, cat. no. IT1-H52W5), to generate an 11 point 1:3 antibody dilution series ranging from 10,000 ng/mL to 0.17 ng/mL. Isotype control antibody (Control Ab; Ms IgG2a EMD Millipore Corp, Billerica, MA, cat. no. PP102) was used to normalize data across different assay runs. For the assays, 100 uL of the antibody dilution series/His-tagged-α5β1 mixture was added to the wells after the blocking solution was removed and wells were washed 3 times. Following 1 hour at RT, the wells were washed 3 times, incubated with biotinylated Anti-6×His-Tag Ab (Invitrogen, Carlsbad, CA, cat. no. MAI-21315-BTIN) at 1:1000 in Standard Diluent for 1 hour, washed 3 times, incubated for 30 minutes with poly-HRP Streptavidin (Thermo Fisher Scientific, Waltham, MA, cat. no. N200), washed 4 times, incubated with TMB substrate (Thermo Fisher Scientific, Waltham, MA, cat. no. N301) for 2-5 minutes, followed by addition of ELISA Stop Solution (Invitrogen, Carlsbad, CA, cat. no. SS04). Absorbance 450 nm was measured. Data points were normalized to the isotype Control Ab values at each concentration and reported as % Absorbance 450 nm normalized to Control Ab. Non-linear regression analysis was used to fit curves (4-parameter) to the data using GraphPad Prism version 9.0.2 (GraphPad Software, LLC, San Diego, CA).
Freeze-thaw stability was tested on a small aliquot of each chimera antibody by overnight storage at −80° C. followed by thaw on ice, repeated three times. […] IC50s were calculated by non-linear regression analysis curve-fitting (4-parameter) of the ELISA data (FIG. 5) using GraphPad Prism version 9.0.2 (GraphPad Software, LLC, San Diego, CA). […]

B1: A2-3B06: anti-α5β1 antibody, VH SEQ ID NO:42, VL SEQ ID NO:43 (antibody, V domains shown)
VH: QVQLKESGPGLVAPSQSLSITCTISGFSLTTYGVHWVRQPPGKGLEWLVVIWSDGSTTYNSALKSRLNITKDNSKSQVFLKMNSLQTDDTAMYYCVRHGGLLRRDAMDYWGQGTSVTVSS
VL: QIVLTQSPAIMSASLGERVTMTCTASSSVSSNSFHWYQQKPGSSPKLWLYSTSNLASGVPARFSGSGSGTSYSLTISSMEAEDAATYYCHQYLRSPPTFGGGTKLEIK
modifications: A2-3B06 VH Sequence; A2-3B06 VL Sequence
[1]
  Selected Human α5 Specific: Yes
[2]
  Absorbance 450 nm Mouse α5β1: 0.049
[3]
  Absorbance 450 nm Human α4β1: 0.0558
[4]; antibody preincubated with rh-α5β1, A2-7A05 immobilized on sensor
  binding of rh-α5β1 complexed with antibody to A2-7A05 on the sensor: able to bind
[4]; antibody preincubated with rh-α5β1, A-15B08 immobilized on sensor
  binding of rh-α5β1 complexed with antibody to A-15B08 on the sensor: not able to bind
[4]; antibody preincubated with rh-α5β1, C-14D12 immobilized on sensor
  binding of rh-α5β1 complexed with antibody to C-14D12 on the sensor: not able to bind
[4]; immobilized mAb A2-7A05
  Response (nm): 0.07 nm
  % Response: 198.65%
[4]; immobilized mAb A-15B08
  Response (nm): 0.10 nm
  % Response: 50.05%
[4]; immobilized mAb C-14D12
  Response (nm): 0.12 nm
  % Response: 53.28%
[4]; two epitope groups among 6 antibodies
  epitope group: second group

B2: A2-9A11: hybridoma clone positive on K562 cells (antibody, V domains shown)
VH: B1 VH
VL: B1 VL
[1]
  Selected Human α5 Specific: Yes
[2]
  Absorbance 450 nm Mouse α5β1: 0.0619
[3]
  Absorbance 450 nm Human α4β1: 0.0608

B3: A2-6C10: hybridoma clone positive on K562 cells (antibody, V domains shown)
VH: B1 VH
VL: B1 VL
[1]
  Selected Human α5 Specific: Yes
[2]
  Absorbance 450 nm Mouse α5β1: 0.0551
[3]
  Absorbance 450 nm Human α4β1: 0.0609

B4: A2-8H11: hybridoma clone positive on K562 cells (antibody, V domains shown)
VH: B1 VH
VL: B1 VL
[1]
  Selected Human α5 Specific: Yes
[2]
  Absorbance 450 nm Mouse α5β1: 0.0515
[3]
  Absorbance 450 nm Human α4β1: 0.0595

B5: A-15B08-T62A: human IgG4 chimera variant of A-15B08, Thr62 to Ala in CDRH2; VH SEQ ID NO:135, VL SEQ ID NO:26 (antibody, V domains shown)
VH: QVQLKESGPGLVAPSQSLSITCTISGFSLTSYGVHWVRQPPGKGLEWLVVIWSDGSTTYNSALKSRLSISKDNSKSQVFFKMNSLQTDDTAMYYCARHYDYDGDWFAYWGQGTLVTVSA
VL: B1 VL with S28R, F34L, L49I
modifications: human IgG4 constant regions; A-15B08-T62A VH Sequence; A-15B08 VL Sequence
[5]
  class of FN binding blocker: strong blockers of FN binding
